IntAct's records for PubMed 20224574

B1: Nibrin (Homo sapiens), O60934 (parent)
chain: MWKLLPAAGPAGGEPYRLLTGVEYVVGRKNCAILIENDQSISRNHAVLTANFSVTNLSQTDEIPVLTLKDNSKYGTFVNEEKMQNGFSRTLKSGDGITFGVFGSKFRIEYEPLVACSSCLDVSGKTALNQAILQLGGFTVNNWTEECTHLVMVSVKVTIKTICALICGRPIVKPEYFTEFLKAVESKKQPPQIESFYPPLDEPSIGSKNVDLSGRQERKQIFKGKTFIFLNAKQHKKLSSAVVFGGGEARLITEENEEEHNFFLAPGTCVVDTGITNSQTLIPDCQKKWIQSIMDMLQRQGLRPIPEAEIGLAVIFMTTKNYCDPQGHPSTGLKTTTPGPSLSQGVSVDEKLMPSAPVNTTTYVADTESEQADTWDLSERPKEIKVSKMEQKFRMLSQDAPTVKESCKTSSNNNSMVSNTLAKMRIPNYQLSPTKLPSINKSKDRASQQQQTNSIRNYFQPSTKKRERDEENQEMSSCKSARIETSCSLLEQTQPATPSLWKNKEQHLSENEPVDTNSDNNLFTDTDLKSIVKNSASKSHAAEKLRSNKKREMDDVAIEDEVLEQLFKDTKPELEIDVKVQKQEEDVNVRKRPRMDIETNDTFSDEAVPESSKISQENEIGKKRELKEDSLWSAKEISNNDKLQDDSEMLPKKLLLTEFRSLVIKNSTSRNPSGINDDYGQLKNFKKFKKVTYPGAGKLPHIIGGSDLIAHHARKNTELEEWLRQEMEVQNQHAKEESLADDLFRYNPYLKRRR

Legend:
Details in all cases: with mdc1_human MDC1, Q14676
mdc1_human MDC1, Q14676, sequence (Q14676 whole entry): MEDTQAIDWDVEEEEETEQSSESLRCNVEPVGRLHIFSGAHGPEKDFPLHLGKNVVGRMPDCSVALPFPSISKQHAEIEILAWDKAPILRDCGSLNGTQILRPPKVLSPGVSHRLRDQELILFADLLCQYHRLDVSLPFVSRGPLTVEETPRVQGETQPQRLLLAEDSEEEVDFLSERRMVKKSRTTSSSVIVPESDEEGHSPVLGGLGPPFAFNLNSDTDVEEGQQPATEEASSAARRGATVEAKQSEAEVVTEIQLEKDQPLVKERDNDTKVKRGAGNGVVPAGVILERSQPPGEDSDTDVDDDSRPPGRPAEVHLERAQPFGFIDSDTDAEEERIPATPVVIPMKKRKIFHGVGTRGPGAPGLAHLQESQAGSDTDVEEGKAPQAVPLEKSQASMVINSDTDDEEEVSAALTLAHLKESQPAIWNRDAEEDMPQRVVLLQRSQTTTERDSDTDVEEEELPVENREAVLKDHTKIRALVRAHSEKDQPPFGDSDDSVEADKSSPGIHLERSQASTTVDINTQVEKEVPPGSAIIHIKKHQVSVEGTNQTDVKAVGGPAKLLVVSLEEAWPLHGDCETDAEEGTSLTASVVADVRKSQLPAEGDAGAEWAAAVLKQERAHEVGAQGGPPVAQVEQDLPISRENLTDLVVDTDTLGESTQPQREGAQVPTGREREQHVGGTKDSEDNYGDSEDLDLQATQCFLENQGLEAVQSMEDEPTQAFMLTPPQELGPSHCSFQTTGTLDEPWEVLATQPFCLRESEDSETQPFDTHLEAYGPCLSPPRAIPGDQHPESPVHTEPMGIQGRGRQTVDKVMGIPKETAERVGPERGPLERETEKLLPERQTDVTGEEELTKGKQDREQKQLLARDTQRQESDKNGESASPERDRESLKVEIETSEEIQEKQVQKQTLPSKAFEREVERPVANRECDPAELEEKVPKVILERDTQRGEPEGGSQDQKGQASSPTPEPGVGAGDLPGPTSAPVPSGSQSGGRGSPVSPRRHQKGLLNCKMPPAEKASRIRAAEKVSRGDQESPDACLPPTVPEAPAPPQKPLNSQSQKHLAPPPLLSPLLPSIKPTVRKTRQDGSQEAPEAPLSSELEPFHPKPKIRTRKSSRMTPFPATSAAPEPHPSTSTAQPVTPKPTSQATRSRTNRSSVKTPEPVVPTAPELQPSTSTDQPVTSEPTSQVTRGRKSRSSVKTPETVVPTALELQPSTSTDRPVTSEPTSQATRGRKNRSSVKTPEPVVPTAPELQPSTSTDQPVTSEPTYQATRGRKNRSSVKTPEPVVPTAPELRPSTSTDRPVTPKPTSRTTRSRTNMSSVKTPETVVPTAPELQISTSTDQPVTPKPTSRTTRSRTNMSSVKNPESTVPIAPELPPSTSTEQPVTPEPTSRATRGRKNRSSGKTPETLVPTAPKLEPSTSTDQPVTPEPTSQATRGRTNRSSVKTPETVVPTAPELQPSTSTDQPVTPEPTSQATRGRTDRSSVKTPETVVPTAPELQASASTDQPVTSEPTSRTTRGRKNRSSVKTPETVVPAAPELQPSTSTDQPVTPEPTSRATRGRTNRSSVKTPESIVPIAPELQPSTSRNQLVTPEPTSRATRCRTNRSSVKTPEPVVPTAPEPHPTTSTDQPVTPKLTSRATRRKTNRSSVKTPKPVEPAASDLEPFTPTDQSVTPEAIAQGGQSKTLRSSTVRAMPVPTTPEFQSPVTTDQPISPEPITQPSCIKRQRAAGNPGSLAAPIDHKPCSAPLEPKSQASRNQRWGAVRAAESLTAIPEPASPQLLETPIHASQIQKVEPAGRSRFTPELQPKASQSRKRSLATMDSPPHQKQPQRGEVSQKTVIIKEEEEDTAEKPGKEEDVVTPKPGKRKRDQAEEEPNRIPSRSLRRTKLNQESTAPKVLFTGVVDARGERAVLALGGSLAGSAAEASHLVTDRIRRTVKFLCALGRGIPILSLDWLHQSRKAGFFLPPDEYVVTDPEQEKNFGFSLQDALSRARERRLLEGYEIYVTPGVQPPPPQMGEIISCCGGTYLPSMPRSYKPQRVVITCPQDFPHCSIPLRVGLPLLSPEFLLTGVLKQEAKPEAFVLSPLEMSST

mdc1_human MDC1, Q14676 [1] = variants of: B1
mdc1_human MDC1, Q14676 [2] = variants of: B1; remark: listed apart in the source
mdc1_human MDC1, Q14676 [3] = variants of: B1; remark: listed apart in the source

Variant	effect of a mutation on the interaction (mdc1_human MDC1, Q14676 [1])	effect of a mutation on the interaction (mdc1_human MDC1, Q14676 [2])	effect of a mutation on the interaction (mdc1_human MDC1, Q14676 [3])
R28A	decreasing interaction	disrupting interaction	–
K160M	–	disrupting interaction	decreasing interaction
